From the Immune Epitope Database (IEDB)

Experiments:
[1] = target: HLA-A*02:01; assay: IEDB peptide-MHC binding, cellular MHC/competitive/fluorescence; ≥ and ≤ were set here for values at or beyond the usual limits of such assays; conditions: source organism: Homo sapiens
[2] = target: HLA-A*24:02; assay: IEDB peptide-MHC binding, purified MHC/competitive/radioactivity; ≥ and ≤ were set here for values at or beyond the usual limits of such assays; conditions: source organism: Homo sapiens
[3] = target: HLA-A*11:01; assay: IEDB peptide-MHC binding, purified MHC/competitive/fluorescence; filed as Kd, often an IC50 or EC50 that approximates it; ≥ and ≤ were set here for values at or beyond the usual limits of such assays; conditions: source organism: human gammaherpesvirus 4
[4] = target: HLA-B*53:01; assay: IEDB peptide-MHC binding, purified MHC/competitive/fluorescence; ≥ and ≤ were set here for values at or beyond the usual limits of such assays; conditions: source organism: Human herpesvirus 4 type 2
[5] = target: HLA-B*15:01; assay: IEDB peptide-MHC binding, purified MHC/direct/fluorescence; filed as Kd, often an IC50 or EC50 that approximates it; ≥ and ≤ were set here for values at or beyond the usual limits of such assays
[6] = target: HLA-B*58:01; assay: as above
[7] = target: HLA-B*15:17; assay: IEDB peptide-MHC binding, purified MHC/competitive/fluorescence; filed as Kd, often an IC50 or EC50 that approximates it; ≥ and ≤ were set here for values at or beyond the usual limits of such assays
[8] = target: HLA-B*44:02; assay: as above; conditions: source organism: Escherichia coli O139:H28 str. E24377A
[9] = target: HLA-B*57:01; assay: as above
[10] = target: HLA-B*48:01; assay: IEDB peptide-MHC binding, purified MHC/direct/fluorescence; filed as Kd, often an IC50 or EC50 that approximates it; ≥ and ≤ were set here for values at or beyond the usual limits of such assays; conditions: source organism: Mycobacterium tuberculosis
[11] = target: HLA-A*02:01; assay: as above; conditions: source organism: Mycobacterium tuberculosis
[12] = target: HLA-A*68:02; assay: as above; conditions: source organism: Mycobacterium tuberculosis
[13] = target: HLA-B*46:01; assay: as above; conditions: source organism: Mycobacterium tuberculosis
[14] = target: HLA-B*40:01; assay: as above; conditions: source organism: Mycobacterium tuberculosis
[15] = target: HLA-A*11:01; assay: as above; conditions: source organism: Mycobacterium tuberculosis
[16] = target: HLA-B*27:05; assay: as above; conditions: source organism: Mycobacterium tuberculosis
[17] = target: HLA-B*18:01; assay: as above; conditions: source organism: Mycobacterium tuberculosis
[18] = target: HLA-B*07:02; assay: as above; conditions: source organism: Mycobacterium tuberculosis
[19] = target: HLA-A*26:01; assay: as above; conditions: source organism: Mycobacterium tuberculosis str. Haarlem
[20] = target: HLA-A*31:01; assay: as above; conditions: source organism: Mycobacterium tuberculosis
[21] = target: HLA-B*57:01; assay: as above; conditions: source organism: Mycobacterium tuberculosis
[22] = target: HLA-A*01:01; assay: as above; conditions: source organism: Mycobacterium tuberculosis
[23] = target: HLA-A*69:01; assay: as above; conditions: source organism: Mycobacterium tuberculosis
[24] = target: HLA-B*35:01; assay: IEDB peptide-MHC binding, purified MHC/competitive/fluorescence; filed as Kd, often an IC50 or EC50 that approximates it; ≥ and ≤ were set here for values at or beyond the usual limits of such assays; conditions: source organism: Mycolicibacterium gilvum PYR-GCK
[25] = target: HLA-A*02:06; assay: as above; conditions: source organism: Mycolicibacterium gilvum PYR-GCK
[26] = target: HLA-A*26:03; assay: as above; conditions: source organism: Mycolicibacterium gilvum PYR-GCK
[27] = target: HLA-A*01:01; assay: IEDB peptide-MHC binding, purified MHC/competitive/radioactivity; ≥ and ≤ were set here for values at or beyond the usual limits of such assays
[28] = target: HLA-B*40:01; assay: IEDB peptide-MHC binding, purified MHC/competitive/fluorescence; filed as Kd, often an IC50 or EC50 that approximates it; ≥ and ≤ were set here for values at or beyond the usual limits of such assays
[29] = target: HLA-A*02:01; assay: IEDB peptide-MHC binding, purified MHC/competitive/radioactivity; ≥ and ≤ were set here for values at or beyond the usual limits of such assays; conditions: source organism: Homo sapiens
[30] = target: HLA-B*45:06; assay: IEDB peptide-MHC binding, purified MHC/competitive/fluorescence; filed as Kd, often an IC50 or EC50 that approximates it; ≥ and ≤ were set here for values at or beyond the usual limits of such assays; conditions: source organism: Burkholderia pseudomallei 668
[31] = target: HLA-B*27:03; assay: as above; conditions: source organism: Burkholderia pseudomallei 668
[32] = target: HLA-A*02:01; assay: as above; conditions: source organism: Burkholderia pseudomallei 668
[33] = target: HLA-A*68:02; assay: as above; conditions: source organism: Burkholderia pseudomallei 668
[34] = target: HLA-B*51:01; assay: as above; conditions: source organism: Burkholderia pseudomallei 668
[35] = target: HLA-B*46:01; assay: as above; conditions: source organism: Burkholderia pseudomallei 668
[36] = target: HLA-B*83:01; assay: as above; conditions: source organism: Burkholderia pseudomallei 668
[37] = target: HLA-B*39:01; assay: as above; conditions: source organism: Burkholderia pseudomallei 668
[38] = target: HLA-A*23:01; assay: as above; conditions: source organism: Burkholderia pseudomallei 668
[39] = target: HLA-B*15:42; assay: as above; conditions: source organism: Burkholderia pseudomallei 668
[40] = target: HLA-A*02:11; assay: as above; conditions: source organism: Burkholderia pseudomallei 668
[41] = target: HLA-B*18:01; assay: as above; conditions: source organism: Burkholderia pseudomallei 668
[42] = target: HLA-A*24:03; assay: as above; conditions: source organism: Burkholderia pseudomallei 668
[43] = target: HLA-A*26:01; assay: as above; conditions: source organism: Burkholderia pseudomallei 668
[44] = target: HLA-A*03:01; assay: as above; conditions: source organism: Burkholderia pseudomallei 668
[45] = target: HLA-A*69:01; assay: as above; conditions: source organism: Burkholderia pseudomallei 668
[46] = target: HLA-A*29:02; assay: as above; conditions: source organism: Burkholderia pseudomallei 668
[47] = source organism: Escherichia coli
[48] = source organism: Escherichia coli O139:H28 str. E24377A
[49] = source organism: Mycobacterium tuberculosis
[50] = source organism: Burkholderia pseudomallei 668

## LLDRFLATV
[1]
  IC50: 560 nM

## IFSKASEYL
[2]
  IC50: 522 nM

## FSSQLGLFY
[3]
  Kd: 947 nM
[4]
  IC50: 2970 nM

## WSILRQRCW
[5]; [47]
  Kd: 93.4 nM
[6]; [47]
  Kd: 52.1 nM
[7]; [48]
  Kd: 5.2 nM
[8]
  Kd: ≥ 20000 nM
[9]; [48]
  Kd: 108 nM

## ALYLLDGLR
[5]; [49]
  Kd: ≥ 20000 nM
[10]
  Kd: ≥ 20000 nM
[11]
  Kd: ≥ 20000 nM
[12]
  Kd: ≥ 20000 nM
[13]
  Kd: ≥ 20000 nM
[14]
  Kd: ≥ 20000 nM
[15]
  Kd: 7370 nM
[16]
  Kd: ≥ 20000 nM
[6]; [49]
  Kd: ≥ 20000 nM
[17]
  Kd: ≥ 20000 nM
[18]
  Kd: ≥ 20000 nM
[19]
  Kd: ≥ 20000 nM
[20]
  Kd: 106 nM
[21]
  Kd: ≥ 20000 nM
[22]
  Kd: ≥ 20000 nM
[23]
  Kd: ≥ 20000 nM
[7]; source organism: Mycolicibacterium gilvum PYR-GCK
  Kd: 446 nM
[24]
  Kd: 1210 nM
[25]
  Kd: ≥ 20000 nM
[26]
  Kd: 1000 nM

## YGDDVIFSY
[27]; source organism: Rhinovirus A
  IC50: 200 nM

## KSAIVTLTY
[27]; source organism: Human papillomavirus 16
  IC50: 11 nM

## IEDKNLYMF
[28]; source organism: Bacillus mycoides KBAB4
  Kd: 12.7 nM

## FYDPMFKYHL
[2]
  IC50: 153 nM

## LLAVGATKV
[29]
  IC50: 333 nM

## ILFDRLPIA
[7]; [50]
  Kd: ≥ 20000 nM
[30]
  Kd: ≥ 5000 nM
[31]
  Kd: ≥ 20000 nM
[32]
  Kd: ≤ 0.1 nM
[33]
  Kd: ≥ 20000 nM
[34]
  Kd: ≥ 20000 nM
[35]
  Kd: ≥ 20000 nM
[36]
  Kd: ≥ 5000 nM
[37]
  Kd: ≥ 20000 nM
[38]
  Kd: ≥ 20000 nM
[39]
  Kd: 970 nM
[40]
  Kd: ≤ 0.1 nM
[41]
  Kd: ≥ 20000 nM
[42]
  Kd: ≥ 20000 nM
[43]
  Kd: ≥ 20000 nM
[9]; [50]
  Kd: ≥ 20000 nM
[44]
  Kd: ≥ 20000 nM
[45]
  Kd: ≥ 20000 nM
[46]
  Kd: ≥ 20000 nM

## WEKAWPAVF
[28]; source organism: Escherichia coli O157:H7 str. EDL933
  Kd: 96 nM

## RLDCWRGGQV
[29]
  IC50: 250 nM

## ALLDKLYAL
[1]
  IC50: 1180 nM
